Literature values, collected in article PMC6611588, “Quantitative high-throughput screening assays for the discovery and development of SIRPα-CD47 interaction inhibitors” (PLoS ONE, 2019).
Values joined by “and” are separate entries in the source; they are usually repeats but may differ in a detail not shown here. Identical values can stand only once.

Biological target: CD47 (Homo sapiens) (UniProt Q08722)
Settings: cited from earlier work

Sequence of CD47 (Homo sapiens) (Q08722 19-323): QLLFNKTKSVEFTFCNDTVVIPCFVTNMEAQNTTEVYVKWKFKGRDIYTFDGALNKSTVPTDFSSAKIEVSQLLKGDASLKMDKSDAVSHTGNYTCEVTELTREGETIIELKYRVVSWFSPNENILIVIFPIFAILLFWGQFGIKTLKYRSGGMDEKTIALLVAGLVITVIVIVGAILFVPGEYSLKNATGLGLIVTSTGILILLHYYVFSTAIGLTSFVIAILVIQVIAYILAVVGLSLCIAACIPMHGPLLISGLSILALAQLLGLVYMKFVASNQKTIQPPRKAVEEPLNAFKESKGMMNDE
Sequence of SIRPα (P78324 31-373): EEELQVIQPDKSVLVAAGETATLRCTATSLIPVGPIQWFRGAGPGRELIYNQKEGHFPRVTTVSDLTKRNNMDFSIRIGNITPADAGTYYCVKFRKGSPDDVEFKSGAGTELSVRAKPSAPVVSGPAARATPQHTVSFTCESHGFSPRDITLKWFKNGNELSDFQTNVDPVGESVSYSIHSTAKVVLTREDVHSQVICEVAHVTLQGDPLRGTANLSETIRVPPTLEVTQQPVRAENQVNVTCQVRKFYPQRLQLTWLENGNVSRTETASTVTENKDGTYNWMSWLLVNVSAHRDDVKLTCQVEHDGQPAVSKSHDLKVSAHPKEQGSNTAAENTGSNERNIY

In the case of SIRPα (from UniProt P78324), the Kd is listed as 300 nM and 279 nM.
